# Target: the molecule itself
# Assay: AUC
protein,measurement,value
"Mid1p construct M1-14 (residues 1–578) (domain or fragment, S. pombe, UniProt P78953 1-578, looked up) MKEQEFSYREAKDVSLDSKGLENSFLSSPNREKTPLFFEGNSNETSGYDQTKNFTHGDGDMSLGNLSELNVATDLLESLDLRSMYMHGYGHLDSSFSSQHSPDNRKRMSSTSVFKRINSEEEGRIPSLTYSAGTMNSTSSSTASLKGADIVADYETFNPDQNLAELSFDRSKSSRKRAVEVAEFSRAKTMSPLEYTVQHPYQSHNELSTNPARARAGSVPNLARIPSDVKPVPPAHLSASSTVGPRILPSLPKDTTEDNPALERVETTASLDMDYKPLEPLAPIQEAPVEDTSEPFSSVPEATLDDSDISTESLRKKVLAKMEAKRISSGSSYASTLRKVYDFSELSLPTNGKDYDELYLQSSRNSEPEISTIINDSLQQENMDEDISATSIPKSQAAYGHGSVTYHEVPRYNLTSASVGYSISSQRGRIKSSSTIDNLSAILSSEDLRHPSMQPVPGTKRTYSNYCENEPNKSSQSLVSSESHNVEGWNYSETGTVGFYDPSAEISASIDELRQSTPVARDSELLSRAHSFDLNRLDLPSQDKSTSYEVPNGTENQSPRPVTSLGFVNETFFEEKPK",stoichiometry N,> 8
